Molecular target: Triggering receptor expressed on myeloid cell-1 (TREM-1), human (human) (UniProt Q9NP99)
Assay: cell-based or functional assay

Sequence of UniProt Q9NP99 (Q9NP99 21-234): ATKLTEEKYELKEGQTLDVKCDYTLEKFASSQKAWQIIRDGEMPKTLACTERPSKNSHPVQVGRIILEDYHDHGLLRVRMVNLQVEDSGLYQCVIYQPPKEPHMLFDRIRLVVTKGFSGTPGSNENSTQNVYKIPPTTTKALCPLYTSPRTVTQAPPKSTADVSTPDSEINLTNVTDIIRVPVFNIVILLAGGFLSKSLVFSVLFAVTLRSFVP

- CSF2 (GM-CSF) mRNA induction (microarray, human monocytes): 9.6 fold
- INHBA transcript fold change (microarray, human monocytes), confirmed at protein level by ELISA: 96.7 fold
- M-CSF transcript fold change (microarray, human monocytes), confirmed at protein level by ELISA: 22 fold
- SPP1 transcript fold change (microarray, human monocytes, 2 hours, α-TREM-1 against control antibody): 28 fold
Substance: anti-hTREM-1 antibody (MAB1278, R&D Systems)
